Patent US9951373B2, “Oplophorus-derived luciferases, novel coelenterazine substrates, and methods of use” (Promega Corporation, priority 2010, dated 2018)

Legend:
[1] = system: CRE; assay: Transcriptional reporter, bulk transfection, CRE in NIH3T3 cells; assay type: cell-based; settings: NIH3T3, 10 nM FSK, 4 h
Protocol: (§1) The transcriptional reporter containing HRE and 9B8 opt-P was used in the bulk transfection of HeLa cells
(§2) HEK293, NIH3T3, or HeLa cells were plated to a single well of a 6-well tissue culture plate the day before transfection at a density of 4.5×10^5 cells/well in 3 mL complete medium (DMEM+10% FBS+1×NEAA+1× sodium pyruvate) for HEK293 cells, 3×10^5 cells/well in 3 mL complete medium (DMEM+10% fetal calf serum (FCS)+1×NEAA+1× sodium pyruvate) for NIH3T3 cells, or 9.9×10^5 cells/well in 3 mL complete medium (DMEM+10% FBS+1×NEAA) for HeLa cells. Cells were grown overnight at 37° C.
(§3) 3,300 ng of reporter plasmid DNA in 155 μL OPTI-MEM® was mixed with 9.9 μL FUGENE® HD transfection reagent, vortexed briefly, and incubated at room temperature for 10 min. The CRE transcriptional reporters were used to transfect HEK293 and NIH3T3 cells. The HRE transcriptional reporters were used to transfect HeLa cells. The reporter mixture was added to cells and mixed by gentle rocking followed by incubation at 37° C. for 6 hrs (HEK293 and NIH3T3) or 3 hrs (HeLa). […]
(§4) FSK (CRE stimulator) or 17-AAG (HRE stimulator; 17-Allylamino-demethoxy geldanamycin) in OPTI-MEM® was added to the cells (10 nM or 10 μM final concentration for FSK; 1 nM or 1 μM final concentration for 17-AAG) and incubated at 37° C. for 4 hrs (FSK) or 6 hrs (17-AAG). […] Luminescence was measured on a GLOMAX® Luminometer.

[2] = system: heat shock response element (HRE); assay: Transcriptional reporter, bulk transfection, HRE in HeLa cells; assay type: cell-based; settings: 6 h
Protocol: as §1, §2, §3, §4

[3] = system: CRE; assay: Transcriptional reporter, bulk transfection, CRE in HEK293 cells; assay type: cell-based, human; settings: HEK293, 10 nM FSK, 4 h
Protocol: as §1, §2, §3, §4

[4] = system: cAMP response element (CRE); assay: Transcriptional reporter, forward transfection, CRE in HEK293 cells; assay type: cell-based, human; settings: 3 h; for baseline: 10 nM FSK
Protocol: HEK293 cells were plated at 15,000 cells/well in six 96-well tissue culture plates. Cells were grown in 100 μL of DMEM+10% FBS+1× non-essential amino acids (NEAA) and incubated overnight at 37° C. The cells were transiently transfected with either 10 ng or 100 ng plasmid DNA/well of pGL4.29 9B8 opt, pGL4.29 9B8 opt-P, or pGL4.29. Plasmid DNA was mixed with 850 μL of OPTI-MEMO (Invitrogen) and 32.4 μL of FUGENE® HD transfection reagent (Promega Corp.) and incubated at room temperature for 10 min. Eight μL of the transfection/reporter DNA mixture was added to the appropriate wells (2 constructs/plate). Cells were incubated for 4 hrs at 37° C. The medium was replaced with OPTI-MEM®+0.5% dialyzed FBS+1×NEAA+1× sodium pyruvate+1× Penn-Strep and incubated overnight at 37° C.
A lytic reagent containing 100 mM MES pH 6.1, 1 mM CDTA, 150 mM KCl, 35 mM thiourea, 2 mM DTT, 0.25% TERGITOLO NP-9 (v/v), 0.025% MAZUO DF 204, and 20 μM PBI-3939 was added to the cells containing pGL4.29 9B8 opt or pGL4.29 9B8 opt-P and allowed to incubated for 10 min at room temperature (100 μL lytic reagent added to 100 μL cells). ONE-GLO™ assay reagent (Promega Corp.) was added to cells containing pGL4.29 and used according to the manufacturer's protocol (100 μL reagent added to 100 μL cells). Luminescence was measured on a GLOMAX® Luminometer.

[5] = system: antioxidant response element (ARE); assay: Transcriptional reporter, reverse transfection, ARE in HEK293 cells; assay type: cell-based, human; settings: 100 ng DNA, 24 h
Protocol: HEK293 cells were trypsinized (T75 flask, 3 mL trypsin) and resuspended in […] (approximately 8.9×10^6 total cells) in medium containing DMEM+10% FBS+1×NEAA. Each transcriptional reporter was prepared for transfection by mixing 1.2 mL OPTI-MEM®, 12 μL transcription reporter DNA (100 ng) and 36 μL FUGENE® HD transfection reagent together and incubated at room temperature for 35 min. Following incubation, 624 μL of the transfection/reporter DNA mixture was added to 12 mL of cell suspension and mixed by inversion. After mixing, 100 μL of the cell/DNA mixture was added to wells of a 96-well plate (2 constructs/plate). The cells were incubated at 37° C. for 22 hrs. Tert-butylhydroquinone (a Nrf2 stabilizer; tBHQ; 1 μM (“baseline”) or 20 μM) or sulphoraphane, (an organosulfer antioxidant known to activate Nrf2; 1 μM (“baseline”) or 20 μM) in OPTI-MEM® was added to each well and incubated at 37° C. for 24 hrs. Cells were lysed with 100 μL lytic reagent as described above for the forward transfection. Luminescence was measured on a GLOMAX® Luminometer.

B1: 9B8 opt-P: 9B8 opt further comprising the PEST protein degradation sequence (SEQ ID NO: 65) (protein)
chain: MVFTLEDFVGDWRQTAGYNLDQVLEQGGLSSLFQKLGVSVTPIQKIVLSGENGLKIDIHVIIPYEGLSGYQMGQIEKIFKVVYPVDDHHFKVILHYGTLVIDGVTPNMIDYFGRPYEGIAVFDGKKITVTGTLWNGNKIIDERLINPDGSLLFRVTINGVTGWRLCERILANSHGFPPEVEEQAAGTLPMSCAQESGMDRHPAACASARINV
modifications: PEST degradation sequence
[1]
  baseline: 410,461 RLU
[2]
  baseline: 278,118 RLU
[3]
  baseline: 3,960,000 RLU
[4]; 10 ng DNA
  baseline: 11179 RLU
  RLU (10 µM FSK): 1,353,459 RLU
  Response: 121
[4]; 100 ng DNA
  baseline: 122,071 RLU
  RLU (10 µM FSK): 20,544,753 RLU
  Response: 168
[5]
  RLU (20 μM sulphoraphane): 3,940,000 RLU
  RLU (20 μM tBHQ): 8,460,000 RLU
[5]; 1 μM sulphoraphane
  baseline: 258,406 RLU
[5]; 1 μM tBHQ
  baseline: 317,238 RLU
